# Values quoted from earlier work in paper PMC3101942.
# Target: tissue factor (Homo sapiens) (UniProt P13726)
# Chain of UniProt P13726 (P13726 33-251): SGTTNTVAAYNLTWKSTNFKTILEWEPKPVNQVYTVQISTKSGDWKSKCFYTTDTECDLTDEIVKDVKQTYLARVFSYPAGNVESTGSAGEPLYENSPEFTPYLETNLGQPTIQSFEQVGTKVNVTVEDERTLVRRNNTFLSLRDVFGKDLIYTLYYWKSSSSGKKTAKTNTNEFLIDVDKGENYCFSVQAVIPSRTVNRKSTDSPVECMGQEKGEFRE
substance,measurement,value
factor VII (from UniProt P08709),Kd,1 pM
